The DeepSol protein solubility set

Assay: soluble on expression in E. coli; label from the status in PepcDB or PDB records

Sequence	soluble on expression in E. coli
MGSDKIHHHHHHAAVLSGCEFNEDFCIRNGELVAWCDFSGIRETPPVPEERHIIAFPSGMDIPSGEQMTFTQDTLRQSIPQGEYQFLFYTGNYEVSDIRDYHEARLMARTDTLEGEVYISGVQKFCCSAGFSQRLEYQRPKRVPITPSAFVQRLNIQINVSGNITPLAGLQGTLTGISTGRYLVSRERTGNASVTSLFSRKPETDRWKTSLYAFGFNPAAENILSVKIEMDGKDSVFNEEQKVDLTPYLRGFDSDELSLELDLHIGKELTIGEPVVIPDWEDIPETELPNYN	not soluble
ESLDEVVVVGMGTQRKVSVVGAVTSVNPAAISAPSTSVANMLGGVVPGIIAVDRSGEPGQDVSEFWIRGISTFGANQSALVLIDGIEGNLNDLDPSDIESFSILKDASATAVYGVRGANGVVLVTTRSGQEGR	not soluble
KIQEWLGESDYSDFLSVVEAVHDSGPSFVLQAMKSLDKYDAMMCISVDSMVNRIQELIDDTMVMSTNNPWGVIPSEGGAGLIFCRRNTVETLKLKPLAQLGYIDTELNTSDRRGMYRLVQRASKKLTAFGEVYSDMTNLRAHSEDYGFALGAKAERFINPEQPLLINE	not soluble
MGSDKIHHHHHHIRSATACSSTDNVVSMKLTEHIGRLTVMGLMLPKHRPFFKERMGMNVQKEGVGEPTMAFTPTQRLHLGAEAEVWKGEWFGKAAVRKQRRPRSWRHPNLDHRLGVRRMISEARLLIRTRKAGLSVPSVWDLDYEGGQLIIEHLEGRPLIDVLNDPATEKEVAKTTLHRVGHSVRRLHREATTHGDLSSNNILIEGEHVHLIDFGLASIEYDVERFGIDLHVLDEILGASHPQWEGAIDWVIEGYLSAEEELGPAPALQGGSVPSAKEVHTRLEDIRTRVRYH	not soluble
MQSLNVNGTLMTYSESGDPHAPTLFLLSGWCQDHRLFKNLAPLLARDFHVICPDWRGHDAKQTDSGDFDSQTLAQDLLAFIDAKGIRDFQMVSTSHGCWVNIDVCEQLGAARLPKTIIIDWLLQPHPGFWQQLAEGQHPTEYVAGRQSFFDEWAETTDNADVLNHLRNEMPWFHGEMWQRACREIEANYRTWGSPLDRMDSLPQKPEICHIYSQPLSQDYRQLQLEFAAGHSWFHPRHIPGRTHFPSLENPVAVAQAIREFLQA	soluble
MAYDGLFTKKMVESLQFLTTGRVHKINQPDNDTILMVVRQNRQNHQLLLSIHPNFSRLQLTTKKYDNPFNPPMFARVFRKHLEGGIIESIKQIGNDRRIEIDIKSKDEIGDTIYRTVILEIMGKHSNLILVDENRKIIEGFKHLTPNTNHYRTVMPGFNYEAPPTQHKINPYDITGAEVLKYIDFNAGNIAKQLLNQFEGFSPLITNEIVSRRQFMTSSTLPEAFDEVMAETKLPPTPIFHKNHETGKEDFYFIKLNQFNDDTVTYDSLNDLLDRFYDARGERERVKQ	soluble
LPDLRRRVLSGPLFAWFQKVLPPMSDTEREAIEAGTVWWDGELFSGRPDWQKLLDYPKAQLTEEEQAFVDGPTEELCAMVSDWDIGQRMDLPEEAWAFIKQHGFFGLIIPKEYGGKGFSAFAHSQVVMKLATRSGDLASTVMVPNSLGPAELLLHYGTDEQRQRYLPSLAKGDDIPCFALTGPYAGSDAGGMTDVGIVCKGEWEGREVLGLRLTWEKRYITLGPVATLLGLAFKCHDPDHLLGDEEDLGITLALIPTDTPGVEIGRRHVPLGAAFMNGPNSGKDVFVPLEYIIGGQEMIGKGWMMLMNCLSVGRSISLPAVGTSAGKASSYVSGRYAQVREQFNVPIAAFEGIQEALARIGGNAWLMDSARILTANAVDLGEKPSVLSAILKYHLTERGRECIAHAMDIHGGKGIIMGPNNYLGRSWQGAPIFITVEGANILSRNLMIFGQGAIRCHPYVLKEMELAQREDKDQAAREFDA	not soluble
MGQVEVIDRRQSVFGDDIQLQKRSSSYEIISNGVFLMSTENGRSEREMVTLGAQHMKNAVHSVLIGGLGVGITADEAVHLNDHVQVHVVEIEPSVVEWQYRYLYPFSNQALEHERTAIIISDIQQWLRTNERTYDLICLDTDNGPDWMVHKQNASLYGKIGLELVRERVRVGGAVSFWSASASESFLHELETLFDRVYEHAVSISHTLPPDYVYVACRDLEHHHHHH	soluble
MKKIKLGFAPTRRSIFSAPDAVKYRGLTAQRLKELGVDFVDITDINEEGLLYDDKDVDKIVEKFKKEGVDGLMLPHCNFGTEYVCARLAKKLDVPVLLWGPLDERPEPNGVRLRDTQCGLFATGKVLRRFQIPFTYLTNCRLNDPVFERGVKDFLAVCNVVKTFKNIRILQISTRPFDFWTTMCNEGELLEKFNIQLAPVPMTELTEEVKTVREDKEKMEQMIAYIKDTMVIKIKEEEVEMVAALALAMKSLVEKYGCQAAAIQCWNALQTEIGIMPCAANAILNEQGIPVVCETDIHGAVTALLAEAAGMDEKRGFFADWTIRHPDIENGELLQHCGPWPMSVAQEKPELTYPLAFEHPGSLTAEAKHGEVTLCRFDGDNGEYSLLLGNAKGVDGPKGMGTYLWVEVENIKRLEAKIVEGPYIHHCVGIHKNVVPVLYEACKYIGVKPDLYDPIEEDVKAYLRGE	not soluble
MGSDKIHHHHHHMNIIICDDRIDDRKNLSDLLSDYGEKKNYEFTITEYDSGEQLCEEQSALEACQLLFLDINMQGMDGLKTAMRIKEKYPKLPVVLVTAYMNYALDGYKVKASRFLLKDNLADTIEECMDDLIAEINKNRRILEFRFVEGTIKLYADDIIYIETELHKNVFYTEKGTFQIYKKLDELENEFKDMGFVRAHLSFLVNMRYITKISGYVMTLTTGKKIPVPKARYAQVKREYMLYKGEE	not soluble
GNMDSKAVEELSATECHQWYKKFMTECPSGQLTLYEFKQFFGLKNLSPSANKYVEQMFETFDFNKDGYIDFMEYVAALSLVLKGKVDQKLRWYFKLYDVDGNGCIDRGELLNIIKAIRAINRCNEAMTAEEFTNMVFDKIDINGDGELSLEEFMEGVQKDEVLLDILTRSLDLTHIVKLIQNDGKNPHAPEEAEEAAQ	soluble
MGSDKIHHHHHHMLKSGGSFFYQVAQGYAMTKQPKTIQEMMTLLVEERGLDITGFSDFSTVLLDCNYYRLSGYFRAFQIDPSHGNNRFRNGTHIKDFMIPYLMDEQLRLLILRGTSSLEQTLRAHFAYYLAQNGGAYSYTELSSYKTIKYSDGTEAREVLIENIHKWLERSSEVCIRHYRNNNEPIPIWAAVEAMPFDTLSKMISLHTNTTAVDELNQSLSLGKNRQRAAQIIHSMVYLRNICSHHCRLWNREIVLPPPVLDATAERYGSYAYEDRSVWKSLIVLMDLIDGIKKNSTYSSMLIKQAESNDNYFWGLCHPKRWH	not soluble
MGSDKIHHHHHHMNKGVPLKTRAEVNAFNGSKMLKVIGLDEFVSNGICDNRHCLLLPNYNPNQRELLSLDWGAVAIQCGGIPSNLTIPVISKLEHPEVISTGDVIVLNENRVDILYRRKSTANLLFVTERCNHQCIMCSQPPKVLDDGWHFEECHQLLELIDRDIPVLGISGGEPTLQRDGFLKLLEHAKKALPSTQLHILTNGSAFEEYLYVEQIIQLGHQQIVWGIPIYGSTPQQHDYHTQVLGSFNKTMHGLYNLGHVGAQIELRVVLTRPIIENIVELSEFIARNLPFVSTVALMGLEPTGFARTNYEAVWCDLNDYQEELLEGTHVLLSSGLDTVLYNIPRCHVPKSLRSIAVQSISDWKNSTRKECEYCEEQNLCCGFFKSHTQRFSEQNVKPIQLERRSENVVRT	not soluble
MSLAELQMLLEEEIPSGKRALIESYQNLTRVADYCENNYIQATDKRKALEETKAYTTQSLASVAYQINALANNVLQLLDIQASQLRRMESSINHISQTVDIHKEKVARREIGILTTNKNTSRTHKIIAPANMERPVRYIRKPIDYTVLDDVGHGVKWLKAKHGNNQPARTGTLSRTNPPTQKEGHHHHHH	not soluble
MGSDKIHHHHHHMSPQEYCQNKAAASGSSFYYSFLFLPKAKREAITALYAFCREVDDIADDVQDVNVAQTKLNWWRSEIINLFEGKPQHPVTMALQSPVRELKLKQQHFLEIINGMQMDLEQNRYRDFEELELYCYRVASVVGLLSASIFGYSNPQTLQYALDLGMAFQLTNITRDVGEDGRRGRIYLPLDEISRFGVSEQDILQGKASDNMRQLLEFQVERAERYYEKALAELPLEDRKQQRTGLIMASIYRTLLKEIKRDDIQVVLNARVSLTPIRKLWLAWLTWIRN	not soluble
MAKKLLLVGGGHSNALVLKHWCRHPLADVELTLVSDVRQTPYSGMLPGYLAGFYSYGESHIDLAPLCASAGAIFVQDKAIAVNPEQNLLTTAEGRQLSFDCLSLDIGSTPFIDDIVGAEYGIPAKPVPQFLTAWLALLENIDQNRPKKVTLAIAGGGAGGVELAFNLQARLAKLFPAMGLDMQIWQRGAILLPHHSVQGRKLIERLLVKQNIAVLLNHPVTSIEPEFSPDDNPLTCYKLWSNDHWQSVNAVFLVTQASPAPWLAQSGLSLDSRGFVSVKPTLQSYSHGHIFAAGDVANMIDHPRPKAGVFAVRQGKPLFENLQHYLSHQTLKTFVPQSKYLSLLGTRDGRAIALWGPWASYGHCWWRLKDYIDRQFMAGFSA	soluble
MSNEMKILLANPRGFCAGVDRAISIVERALELYQPPIYVRHEVVHNRFVVEGLKQRGAIFVEELHEVPDNNIVIFSAHGVSQAVRQEAKQRDLTVFDATCPLVTKVHMEVARASRRNMEVVLIGHAGHPEVEGTMGQYSSETGGMYLVETPADVEKLKAIVKDPSDLHYVSQTTLSVDETADVIEELRRVFPDIQGPRKDDICYATQNRQDAVRELAGDVDVMVVVGSKNSSNSTRLKELAEKLGTPGYLTDCPEDIKPEWFEGKTKVGVTAGASAPEELVNQILERIKELVGARSVDEVLGREENMFFEVPKELQIKQVD	not soluble
MNAQIKIINTANGYMALCQDTPEDITPAWFSVDFWREKSAVVGSSKGRYTTWFVAFEHSHWVLRHYWRGGMMEKFSKDAYFYTGLENTRAMGELRLLDALYREQFAVPKPIAANIVRDGLFYRADIIIERVDGAEDLVAKLTKGTMTQAQWHALGATIAQFHRRGVYHADLNAKNILWQPQQTDSAQERFYLIDFDRGELKTPNAKWQKANLDRLLRSFNKEQGKQPTLAFTPANWAALLEGYHAVVPKVAAALEHHHHHH	soluble
MSTNIFLHLPTTISTERTILRKTSFADATTLFDIWSDNDVAQFMNIEKFSTILQAEEMIQAIENEPNACRYTIFTMDNSLKAIGSLGINDINKNNQTIEIGYELAKSHWRQGLMFEILTTFLNTTKAHLPYKTITAKVLPENIASIKLLTKLGFELISTGQELDLHSGKICEISNYQLILN	not soluble
MAHHHHHHMNAVDAEYVEHHGVDNLIIPISVSEPKETKRGDYAYCVDVVVHTLLIKKCSRGHRLLEHLTEKLVTLSIEWIRSECGVQLLPRSCRIAGNPLYFDDTVDTPKSIASIIENAAELLQRKSNSSNSRKDEQDTIPDALNLRKAQVPESKQPLIREVISTPAIKKGFLVDGNARLYGPDGSSEGSSKAPDPLAHIPESLRERCRIIDTRNMEGLTASPAKTMKSVDKTANTHTSGTFVAPTSEPQGKDEANWARFSIERTGEKVIVRFLAPDSVSSLHDIDLSATKDTLEINGSVTQLPVPIVTDDVRAKFVKATRILVVTCLIDVS	not soluble
MQPLVSVLICAYNVEKYFAQSLAAVVNQTWRNLDILIVDDGSTDGTPAIARRFQEQDGRIRIISNPRNLGFIASLNIGLDELAKSGGGGEYIARTDADDIASPGWIEKIVGEMEKDRSIIAMGAWLEVLSEENNKSVLAAIARNGAIWDKPTRHEDIVAVFPFGNPIHNNTMIMRRSVIDGGLRFDPAYIHAEDYKFWYEAGKLGRLAYYPEALVKYRFHQDQTSSKYNLQQRRTAWKIKEEIRAGYWKAAGIAVGADCLNYGLLKSTAYALYEKALSGQDIGCLRLFLYEYFLSLEKYSLTDLLDFLTDRVMRKLFAAPQYRKILKKMLRPWKYRSYLEHHHHHH	not soluble
